In patent publication US8609611B2, “Synthesis of small particles” (MAP Pharmaceuticals, Inc., priority 2001, dated 2013):
Like-named read-outs stand apart in the source and are kept apart here.

What was measured:
[1] = Size exclusion chromatography: biochemical integrity, monomer content; assay type: physicochemical; settings: by anti-solvent used in processing
Procedure: A protein-Pak 125 column (Waters, USA) was used for insulin. The mobile phase consisted of 50 mM sodium phosphate buffer at pH 3 with 300 mM sodium chloride. The powder samples were dissolved to prepare 1 mg/mL solution in deionised water by gentle shaking for 10 minutes to have complete dissolution. The supernatant was filtered through […] membrane filter and then injected into the HPLC column. […] The software Millennium 3.5 was used in the quantification of the monomer content.

[2] = Median particle size by laser diffraction; assay type: physicochemical
Excerpt: These fine insulin particles may aggregate to form larger particles due to intermolecular interaction between the molecules. […] Insulin precipitated as nano-sized particles, was also agglomerated to micron-sized particles.

[3] = Size of precipitated primary particles (SEM images); assay type: physicochemical
Excerpt: These fine insulin particles may aggregate to form larger particles due to intermolecular interaction between the molecules.

[4] = values reported in the literature; cited from earlier work
[5] = Aerosol performance by Cascade Impactor (5 stage Marple-Miller Impactor), fine particle mass; assay type: physicochemical; settings: 60 L/min, Dinkihaler, FIG. 6
Procedure: In order to determine the aerosol performance of the collected fine protein particles, in vitro testing of the particles was assessed using a 5 stage Marple-Miller Impactor (Model 160, MSP Corporation, USA) with cut-off diameters of 10.0, 5.0, 2.5, 1.25, and 0.625 μm. The Marple-Miller impactor consisted of a stainless steel inlet throat, five impaction stages and an integral filter stage. The stages were previously coated with propylene glycol/methanol (50:50) to prevent particle bounce, thus minimising the probability of carry over of coarse particles onto lower stages.
A mass of 10-20 mg of insulin was weighed into a gelatin capsule (size 3, Park Davis, Australia) and was immediately dispersed by a powder inhaler device, Dinkihaler (Aventis, Frankfurt, Germany) into the Marple Miller Impactor at 60 L/min using a vacuum source (ERWEKA GMBH, Germany). The fraction of the protein recovered in each stage was calculated by measuring the absorbance of the protein solution against the absorbance of a standard 1% solution of insulin.

Row | Substance | retention of biological activity as indicated by the in vitro test for monomer content [1] | median particle size (laser diffraction) of agglomerated powder [2] [μm] | median particle size (laser diffraction) of agglomerated powder ([2]; listed as Insulin) | size of nano-sized particles as precipitated ([3]; modified (dual chamber) ASES apparatus) | size of nano-sized particles as precipitated ([3]; single-stage apparatus) | maximum FPM for insulin obtained by other methods [4] [%] | fine particle fraction (%<5 μm) [5]
1 | CO2-ethanol: Insulin particles precipitated from aqueous solution using CO2-20 mol % ethanol as anti-solvent | significant deactivation | – | – | – | – | – | –
2 | Ethane-ethanol | retention of biological activity | – | – | – | – | – | –
3 | insulin: Low endotoxin bovine insulin (Sigma), micronised from aqueous solution by the ASES process into fine particles | – | 5 | about 5 μm | 50-500 nm | 50-500 nm | ≤ 10 | at least 42%
